Experimental findings from article PMC7967050 (2021) are described below.

For this test, the target named is Recombinant human CD38 extracellular domain (amino acids 43–300, hCD38-ECD) (human, UniProt P28907 43-300, biotin (EZ-Link NHS-PEG4-biotin) for panning and for capture on the SA biosensor; not said for the cross-linking). In words: BLI. (In general: BLI is a label-free optical method that tracks binding on a fibre tip over time.)

B1: high-affinity anti-CD38 antibody 028 (scFv) (scFv, V domains shown)
VH: QVQLVQSGAEVKKPGSSVKVSCKAFGGTFSSYAISWVRQAPGQGLEWMGRIIRFLGIANYAQKFQGRVTLIADKSTNTAYMELSSLRSEDTAVYYCAGEPGERDPDAVDIWGQGTMVTVSS
VL: DIQMTQSPSSLSASVGDRVTITCRASQGIRSWLAWYQQKPEKAPKSLIYAASSLQSGVPSRFSGSGSGTDFTLTISSLQPEDFATYYCQQYNSYPLTFGGGTKVEIK
Usually koff stands for a measure of how fast the partners let go of each other. Regarding B1, the koff turned out to be 0.00012 s⁻¹.

B2: anti-CD38 scFv antibody RP02 (scFv, V domains shown)
VH: PAQLVESGPGLVKPSGTLSLTCAVSGGSISSSNWWSWVRQPPGKGLEWIGEIYHSGSTNYNPSLKSRVTISVDKSKNQFSLKLSSVTAADTAVYYCAREDYYYYMDVWGKGTTVTVQS
VL: QSVLTQPPSVSAAPGQKVTISCSGSSSNIGNNYVSWYQQLPGTAPKLLIYDNNKRPSGIPDRFSGSKSGTSATLGITGLQTGDEADYYCGTWDSSLSAGVFGGGTKLTVL
For B2, the koff came to 0.0034 s⁻¹.
